# Measured values: patent publication US20040018971A1 (published 2004)
# Where no end group is shown, it is not given here. [ ]: non-standard residue; d: D form. Abu = CC[C@H](N)C(=O)O
# B1: Her2/neu.528.B1B4 (peptide)
# peptide: BVNBSQFLR
# modifications: B at positions 1 and 4 = alpha-amino butyric acid (in place of cysteine)
# notes: synthetic analog peptide; also called BVNBSQFLR
# B2: Her2/neu.528.B1B4K9 (peptide)
# peptide: [Abu]VN[Abu]SQFLK
# notes: synthetic analog peptide; also called BVNBSQFLK
# B3: Her2/neu.65 (9-mer) (peptide)
# peptide: LPTNASLSF
# notes: native HER2/neu peptide from position 65
# B4: Her2/neu.600 (peptide)
# peptide: CPSGVKPDLSY
# notes: native HER2/neu peptide from position 600
# Legend:
# HLA-A*3101 = HLA-A*3101 (human); assay: inhibition of 125I probe peptide binding to purified HLA
# HLA-A*3301 = HLA-A*3301 (human); assay: as above
# HLA-A*1101 = HLA-A*1101 (human); assay: as above
# HLA-A*0301 = HLA-A*0301 (human); assay: as above
# HLA-A*6801 = HLA-A*6801 (human); assay: as above
# HLA-B*5301 = HLA-B*5301 (human); assay: competition with 125I probe peptide, purified HLA
# HLA-B*3501 = HLA-B*3501 (human); assay: competition with 125I probe peptide, purified HLA
# HLA-B*5101 = HLA-B*5101 (human); assay: competition with 125I probe peptide, purified HLA
# HLA-B*0702 = HLA-B*0702 (human); assay: competition with 125I probe peptide, purified HLA
# HLA-A*0201 [1] = molecular target: T1, HLA-A*0201 (human); assay: competition with 125I-labelled standard peptide for purified HLA-A*0201, gel filtration; ratio to the standard peptide
# T1 construct: Purified HLA class I molecule; also called HLA-A2.1
# HLA-A*0201 [2] = molecular target: T2, HLA-A*0201 (human); assay: competition with 125I-labelled probe peptide for purified HLA-A*0201, gel filtration
# T2 construct: Purified HLA class I molecule (MHC, no peptide specified); also called HLA-A2.1
binder,measurement,setting,value
IVWLGLRSLR (synthetic analog peptide) [Her2/neu.450.V2],IC50,HLA-A*3101,11 nM
same,IC50,HLA-A*3301,193 nM
same,IC50,HLA-A*1101,1940 nM
same,IC50,HLA-A*0301,234 nM
same,IC50,HLA-A*6801,7.3 nM
ISWLGLRSLR (synthetic peptide) [Her2/neu.450],IC50,HLA-A*3101,6.9 nM
same,IC50,HLA-A*3301,223 nM
same,IC50,HLA-A*0301,268 nM
same,IC50,HLA-A*6801,73 nM
HVVPWDQLFR (synthetic analog peptide) [Her2/neu.478.V2],IC50,HLA-A*3101,391 nM
same,IC50,HLA-A*3301,193 nM
same,IC50,HLA-A*1101,1330 nM
same,IC50,HLA-A*0301,7330 nM
same,IC50,HLA-A*6801,3.6 nM
HTVPWDQLFR (synthetic peptide) [Her2/neu.478],IC50,HLA-A*3101,19 nM
same,IC50,HLA-A*3301,88 nM
same,IC50,HLA-A*1101,83 nM
same,IC50,HLA-A*0301,3140 nM
same,IC50,HLA-A*6801,4 nM
CVNCSQFLR (synthetic peptide) [Her2/neu.528],IC50,HLA-A*3101,34 nM
same,IC50,HLA-A*3301,50 nM
same,IC50,HLA-A*1101,194 nM
same,IC50,HLA-A*0301,7330 nM
same,IC50,HLA-A*6801,18 nM
B1,IC50,HLA-A*3101,38 nM
same,IC50,HLA-A*3301,58 nM
same,IC50,HLA-A*1101,80 nM
same,IC50,HLA-A*0301,177 nM
same,IC50,HLA-A*6801,10 nM
B2,IC50,HLA-A*3101,60 nM
same,IC50,HLA-A*3301,4260 nM
same,IC50,HLA-A*1101,22 nM
same,IC50,HLA-A*0301,34 nM
same,IC50,HLA-A*6801,15 nM
B3,IC50,HLA-B*5301,34 nM
same,IC50,HLA-B*3501,114 nM
same,IC50,HLA-B*5101,809 nM
FPTNASLSFL (analog peptide) [Her2/neu.65.F1 (10-mer)],IC50,HLA-B*5301,172 nM
same,IC50,HLA-B*3501,200 nM
same,IC50,HLA-B*5101,262 nM
same,IC50,HLA-B*0702,18 nM
"DLLNWCMQI (Synthetic peptide) [HER2/neu peptide, position 821, 9 amino acids]",relative binding ratio (IC50 of standard peptide / IC50 of test peptide),HLA-A*0201 [1],0.0002 ratio
"DLSVFQNLQV [HER2/neu peptide, position 421, 10 amino acids]",relative binding ratio (IC50 of standard peptide / IC50 of test peptide),HLA-A*0201 [1],0.0003 ratio
"DLVDAEEYL (Synthetic peptide) [HER2/neu peptide, position 1016, 9 amino acids]",relative binding ratio (IC50 of standard peptide / IC50 of test peptide),HLA-A*0201 [1],0.0002 ratio
"DLVDAEEYLV (Synthetic peptide) [HER2/neu peptide, position 1016, 10 amino acids]",relative binding ratio (IC50 of standard peptide / IC50 of test peptide),HLA-A*0201 [1],0.0002 ratio
"DVFAFGGAV (Synthetic peptide) [HER2/neu peptide, position 1183, 9 amino acids]",relative binding ratio (IC50 of standard peptide / IC50 of test peptide),HLA-A*0201 [1],0.0002 ratio
"DVRLVHRDL (Synthetic peptide) [HER2/neu peptide, position 838, 9 amino acids]",relative binding ratio (IC50 of standard peptide / IC50 of test peptide),HLA-A*0201 [1],0.0002 ratio
"DVWSYGVTV (Synthetic peptide) [HER2/neu peptide, position 904, 9 amino acids]",relative binding ratio (IC50 of standard peptide / IC50 of test peptide),HLA-A*0201 [1],0.0002 ratio
"EILKGGVLI (Synthetic peptide) [HER2/neu peptide, position 147, 9 amino acids]",relative binding ratio (IC50 of standard peptide / IC50 of test peptide),HLA-A*0201 [1],0.0001 ratio
B4,IC50,HLA-B*3501,3600 nM
same,IC50,HLA-B*0702,183 nM
FPSGVKPDLSI (analog peptide) [Her2/neu.600.F1I11],IC50,HLA-B*3501,3270 nM
same,IC50,HLA-B*0702,196 nM
"ELAALCRWGL (Synthetic peptide) [HER2/neu peptide, position 2, 10 amino acids]",relative binding ratio (IC50 of standard peptide / IC50 of test peptide),HLA-A*0201 [1],0.0001 ratio
"ELGSGLALI (Synthetic peptide) [HER2/neu peptide, position 460, 9 amino acids]",relative binding ratio (IC50 of standard peptide / IC50 of test peptide),HLA-A*0201 [1],0.0004 ratio
"ELVSEFSRMA (Synthetic peptide) [HER2/neu peptide, position 971, 10 amino acids]",relative binding ratio (IC50 of standard peptide / IC50 of test peptide),HLA-A*0201 [1],0.0001 ratio
"LLLALLPPGA (Synthetic peptide) [HER2/neu peptide, position 11, 10 amino acids]",relative binding ratio,HLA-A*0201 [2],0.0054 ratio (IC50 of standard peptide / IC50 of test peptide)
"LLNWCMQIA (Synthetic peptide) [HER2/neu peptide, position 822, 9 amino acids]",relative binding ratio,HLA-A*0201 [2],0.0046 ratio (IC50 of standard peptide / IC50 of test peptide)
"LLPPGAAST (Synthetic peptide) [HER2/neu peptide, position 15, 9 amino acids]",relative binding ratio,HLA-A*0201 [2],0.0007 ratio (IC50 of standard peptide / IC50 of test peptide)
"LLVVVLGVV (Synthetic peptide) [HER2/neu peptide, position 662, 9 amino acids]",relative binding ratio,HLA-A*0201 [2],0.0001 ratio (IC50 of standard peptide / IC50 of test peptide)
